This passage reports Abs 630 (25 nM) and Abs 630 (100 nM) results from US20250376528A1.

The target of this test is human IL-10 receptor (hIL-10R α and β chains) on HEK-Blue IL-10 reporter cells (human) (UniProt Q13651). Kind of test: cell-based or functional assay.
Sequence of human IL-10 receptor (hIL-10R α and β chains) on HEK-Blue IL-10 reporter cells (human) (Q13651 22-578, chain 1 of 2): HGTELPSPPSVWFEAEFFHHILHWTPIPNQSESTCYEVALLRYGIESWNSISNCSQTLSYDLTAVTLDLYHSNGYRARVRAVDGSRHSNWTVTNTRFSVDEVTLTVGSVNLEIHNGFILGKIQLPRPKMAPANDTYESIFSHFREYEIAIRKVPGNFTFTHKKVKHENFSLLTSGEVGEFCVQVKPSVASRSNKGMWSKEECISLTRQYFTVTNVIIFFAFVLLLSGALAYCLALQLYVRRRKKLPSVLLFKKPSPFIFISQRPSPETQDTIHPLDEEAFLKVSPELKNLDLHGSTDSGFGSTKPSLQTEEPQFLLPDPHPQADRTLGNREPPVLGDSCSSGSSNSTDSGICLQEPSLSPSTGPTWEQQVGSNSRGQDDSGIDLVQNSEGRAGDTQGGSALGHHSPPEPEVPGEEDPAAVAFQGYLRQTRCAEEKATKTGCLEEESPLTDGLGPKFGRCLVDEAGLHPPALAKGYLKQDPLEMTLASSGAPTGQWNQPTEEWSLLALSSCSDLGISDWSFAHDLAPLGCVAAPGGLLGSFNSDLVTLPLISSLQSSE
Sequence of human IL-10 receptor (hIL-10R α and β chains) on HEK-Blue IL-10 reporter cells (human) (Q08334 20-325, chain 2 of 2, further chain): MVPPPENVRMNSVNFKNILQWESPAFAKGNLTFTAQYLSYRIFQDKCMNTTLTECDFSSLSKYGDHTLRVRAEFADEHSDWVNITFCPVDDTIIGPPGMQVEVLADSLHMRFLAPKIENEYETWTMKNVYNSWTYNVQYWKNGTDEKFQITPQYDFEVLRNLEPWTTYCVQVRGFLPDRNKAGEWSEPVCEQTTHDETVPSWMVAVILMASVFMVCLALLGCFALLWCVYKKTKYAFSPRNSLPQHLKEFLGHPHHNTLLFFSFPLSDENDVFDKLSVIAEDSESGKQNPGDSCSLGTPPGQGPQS

In the case of “Recombinant Animal-Free Human IL-10 (Shenandoah Biotechnology, Catalog No. 100-83AF) (from UniProt P22301 19-178) (ligand)”, the Abs 630 (25 nM) was 2.08 Abs 630 and the Abs 630 (100 nM) worked out at 2.04 Abs 630.
